Source: US20250296996A1 (BROADWING BIO, published 2025)

Assays:
[1] = target: T1, P60 (huANGPTL7-Fibrinogen-his) (human, UniProt O43827 129-343); assay: BLI Octet HTX; IgG on AHC sensor; P60 at 200 nM; 1:1 fit
T1 construct: also called human ANGPTL7 fibrinogen domain; not shown: C-terminal short linker and His tag
T1 sequence: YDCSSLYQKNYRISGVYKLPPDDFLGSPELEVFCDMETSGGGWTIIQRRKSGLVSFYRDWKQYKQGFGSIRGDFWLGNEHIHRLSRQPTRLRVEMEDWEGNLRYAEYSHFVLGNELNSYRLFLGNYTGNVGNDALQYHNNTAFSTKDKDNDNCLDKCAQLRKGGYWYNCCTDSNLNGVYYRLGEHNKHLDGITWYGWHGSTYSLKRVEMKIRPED
Method: ANGPTL7 Antibody Kinetics. Experiments were conducted to determine the reactivity and dissociation constants (KD) of anti-ANGPTL7 antibodies with the human fibrinogen domain of the ANGPTL7 protein. Binding experiments were performed on Octet HTX (ForteBio) in 1×PBS, pH 7.4, 0.1 mg/ml BSA, 0.05% Sodium Azide, and 0.02 Tween 20. Antibodies at a concentration of 50 nM were loaded on pre-hydrated AHC biosensors for 5 min. The loaded sensors were dipped into monovalent P60 (huANGPTL7-Fibrinogen-his) at a concentration of 200 nM for 5 min association, followed by 10 min dissociation. […] Responses (nm) at the end of association were also determined (Table 2).

P66 (rabbit ANGPTL7-his) = target: T2, P66 (rabbit ANGPTL7-his) (rabbit, UniProt G1T4P1 27-344); assay: BLI Octet HTX; IgG on AHC sensor; P66 at 200 nM; 1:1 fit
T2 construct: mature; also called rabbit ANGPTL7 protein
T2 sequence: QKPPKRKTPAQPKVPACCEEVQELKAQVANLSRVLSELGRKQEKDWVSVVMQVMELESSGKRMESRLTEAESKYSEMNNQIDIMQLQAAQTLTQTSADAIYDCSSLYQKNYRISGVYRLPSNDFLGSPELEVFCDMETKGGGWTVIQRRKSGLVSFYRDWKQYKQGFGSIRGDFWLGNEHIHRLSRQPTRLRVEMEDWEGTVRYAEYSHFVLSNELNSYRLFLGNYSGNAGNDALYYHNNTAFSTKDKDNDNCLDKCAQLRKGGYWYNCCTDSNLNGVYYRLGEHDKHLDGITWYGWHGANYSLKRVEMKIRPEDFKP
Method: (§1) Experiments were also conducted to determine the reactivity and dissociation constants (KA) of anti-ANGPTL7 antibodies with the rabbit ANGPTL7 protein. Binding experiments were performed on Octet HTX (ForteBio) in Rx PBS, pH 7.4, 0.1 mg/mi BSA, 0.05% Sodium Azide, and 0.02% Tween 20. Antibodies at a concentration of 50 nM were loaded on pre-hydrated AHC biosensors for 5 min. The loaded sensors were dipped into monovalent P66 (rabbit ANGPTL7-his) at a concentration of 200 nM for 5 min of association, followed by 10 min of dissociation. […] Responses (nm) at the end of association were also determined (Table 6).

P62 (huANGPTL7-his) = target: T3, P62 (huANGPTL7-his) (human, UniProt O43827 27-346); assay: BLI Octet HTX; IgG on AHC sensor; P62 0.343-250 nM; global 1:1 fit (token printed under the kon column)
T3 construct: not shown: C-terminal short linker and His tag
T3 chain: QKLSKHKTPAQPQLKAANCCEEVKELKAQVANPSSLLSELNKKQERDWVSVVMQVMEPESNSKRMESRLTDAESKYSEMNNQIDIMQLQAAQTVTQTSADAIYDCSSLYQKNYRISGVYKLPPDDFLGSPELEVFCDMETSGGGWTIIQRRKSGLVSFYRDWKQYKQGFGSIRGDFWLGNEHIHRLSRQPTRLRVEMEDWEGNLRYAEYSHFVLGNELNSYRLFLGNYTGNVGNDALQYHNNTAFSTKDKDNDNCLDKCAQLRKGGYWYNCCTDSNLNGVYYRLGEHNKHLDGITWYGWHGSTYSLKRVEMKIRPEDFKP
Method: Experiments were also conducted to determine the reactivity and dissociation constants (KD) of anti-ANGPTL7 antibodies with the human ANGPTL7-his protein. Binding experiments were performed on Octet HTX (ForteBio) in 1×PBS, pH 7.4, 0.1 mg/mi BSA, 0.05% Sodium Azide, and 0.02% Tween 20. To measure monovalent binding kinetics, antibodies at a concentration of 50 nM were loaded on pre-hydrated AHC biosensors for 5 min. The loaded sensors were dipped into monovalent P62 (huANGPTL7-his) at a range of concentration from 0.343-250 nM (a serial 3-fold dilution) for 5 min association, followed by 10 min dissociation.

[2] = target: T4, muANGPTL7-his (R&D Systems) (mouse, UniProt Q8R1Q3 22-337, limits assumed); assay: BLI Octet HTX; IgG on AHC sensor; muANGPTL7-his at 200 nM
T4 construct: Bought protein; also called mouse ANGPTL7 protein
T4 sequence (looked up): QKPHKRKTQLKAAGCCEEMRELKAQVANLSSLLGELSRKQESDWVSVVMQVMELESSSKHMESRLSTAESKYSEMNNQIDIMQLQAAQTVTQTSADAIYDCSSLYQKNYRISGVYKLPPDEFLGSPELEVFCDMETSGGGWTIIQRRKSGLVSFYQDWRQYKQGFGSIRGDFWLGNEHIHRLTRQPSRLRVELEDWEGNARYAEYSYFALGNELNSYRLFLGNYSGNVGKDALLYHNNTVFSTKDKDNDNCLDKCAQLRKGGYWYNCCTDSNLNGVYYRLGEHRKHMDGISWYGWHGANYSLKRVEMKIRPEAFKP
Method: as §1, with “(KD)” for “(KA)”, “mouse” for “rabbit”, “1×PBS,” for “Rx PBS,”, “[…].” for “min.”, “muANGPTL7-his (R&D Systems)” for “P66 (rabbit ANGPTL7-his)”, “5).” for “6).”

[3] = target: T4, muANGPTL7-his (R&D Systems); assay: BLI Octet HTX; IgG on AHC sensor; muANGPTL7-his at 200 nM; 1:1 fit
Method: as §1, with “(KD)” for “(KA)”, “mouse” for “rabbit”, “1×PBS,” for “Rx PBS,”, “[…].” for “min.”, “muANGPTL7-his (R&D Systems)” for “P66 (rabbit ANGPTL7-his)”, “5).” for “6).”

B1: ATX-P-437 (antibody, human IgG1, kappa, N297A, V domains shown)
VH: QITLKESGPTLVKPTQTLTLTCTFSGFSLSTSGVGVGWIRQPPGKALEWLALIYWNDDKQYSPSLKSRLTITKDTSKNQVVLTMTNMDPMDTATYYCAHNPDYGDFFDYWGQGTLVTVSS
VL: not shown
notes: Full chains (VH + hIgG1-Agly-Fc)
Kd [1]: 0.658 nM
Response [1]: 0.6 nm
Kd (P66 (rabbit ANGPTL7-his)): 0.786 nM
Response (P66 (rabbit ANGPTL7-his)): 0.8 nm
binding result (P62 (huANGPTL7-his)): binds
binding result [2]: no binding (tested: 200 nM)
Response [3]: 0.02 nm
